Assay results as given in publication doi:10.1101/2025.02.24.639257.
Read-outs that look alike come from different tables or passages of the source.

Experiments:
Assay in all cases: TIRF microscopy binding assay
[1] = biological target: porcine double-stabilized microtubules (dsMTs) (porcine) (UniProt P02550)
[2] = biological target: porcine double-stabilized microtubules (dsMTs) (porcine) (UniProt P02550); remark: listed apart in the source
[3] = biological target: AspN-treated double-stabilized microtubules (β-tubulin C-tail removed) (porcine) (UniProt P02550)

| percent reduction of the fluorescence signal (against full-length TTLL11) [1] | percent reduction of the fluorescence signal (against full-length TTLL11) [2] | percent lower fluorescence signal than on intact MTs [3] | Molecule |
| --- | --- | --- | --- |
| 60% | – | – | human TTLL11 R601E mutant (from UniProt Q8NHH1 1-710) (enzyme) |
| 80% | 95% | – | human TTLL11 I594W mutant (from UniProt Q8NHH1 1-710) (enzyme) |
| – | – | 50% | human TTLL11 (tubulin tyrosine ligase-like 11), full length (enzyme, Janelia 549-HALO probe on the HALO tag (in the TIRF assay)) MRRGSSESELAARWEAEAVAAAKAAAKAEAEATAETVAEQVRVDAGAAGEPECKAGEEQPKVLAPAPAQPSAAEEGNTQVLQRPPPTLPPSKPKPVQGLCPHGKPRDKGRSCKRSSGHGSGENGSQRPVTVDSSKARTSLDALKISIRQLKWKEFPFGRRLPCDIYWHGVSFHDNDIFSGQVNKFPGMTEMVRKITLSRAVRTMQNLFPEEYNFYPRSWILPDEFQLFVAQVQMVKDDDPSWKPTFIVKPDGGCQGDGIYLIKDPSDIRLAGTLQSRPAVVQEYICKPLLIDKLKFDIRLYVLLKSLDPLEIYIAKDGLSRFCTEPYQEPTPKNLHRIFMHLTNYSLNIHSGNFIHSDSASTGSKRTFSSILCRLSSKGVDIKKVWSDIISVVIKTVIALTPELKVFYQSDIPTGRPGPTCFQILGFDILLMKNLKPILLEVNANPSMRIEHEHELSPGVFENVPSLVDEEVKVAVIRDTLRLMDPLKKKRENQSQQLEKPFAGKEDALDGELTSAPDCNANPEAHLPSICLKQVFPKYAKQFNYLRLVDRMANLFIRFLGIKGTMKLGPTGFRTFIRSCKLSSSSLSMAAVDILYIDITRRWNSMTLDQRDSGMCLQAFVEAFFFLAQRKFKMLPLHEQVASLIDLCEYHLSLLDEKRLVCGRGVPSGGRPPHRGPPQEPSPSAQPAGDNPPPRTSCANKLSHPRHTLS |
